Laboratory results from patent publication US20240018252A1 (Pfizer, published 2024).
Numbering of substitutions follows the chain as printed.

B1: L3.PY/H2.DY (antibody, V domains shown)
VH: EVQLLESGGGLVQPGGSLRLSCAASGFTFGSYAMTWVRQAPGKGLEWVSAIDYSGGNTFYADSVKGRFTISRDNSKNTLYLQMNSLRAEDTAVYYCARVSPIASGMDYWGQGTLVTVSS
VL: EIVLTQSPGTLSLSPGERATLSCRASQSVSSSYLAWYQQKPGQAPRLLIYGASSRATGIPDRFSGSGSGTDFTLTISRLEPEDFAVYYCQHYPYPPSFTFGQGTKVEIK
notes: IgG in the assay
B2: L3.PY/L3.KF/H3.TAQ (antibody, V domains shown)
VH: B1 VH with D52S, Y53G, A97T, S104A, G105Q
VL: B1 VL with Q90K, H91F
notes: IgG in the assay
B3: L3.PY/L3.KY/H3.TAQ (antibody, V domains shown)
VH: B1 VH with D52S, Y53G, A97T, S104A, G105Q
VL: B1 VL with Q90K, H91Y
notes: IgG in the assay
B4: L3.PY/L3.KY/H3.YA (antibody, V domains shown)
VH: B1 VH with D52S, Y53G, A103Y, S104A
VL: B1 VL with Q90K, H91Y
notes: IgG in the assay
B5: L3.PY/H2.QR (antibody, V domains shown)
VH: B1 VH with D52S, Y53G, S63Q, V64R
VL: B1 VL
notes: IgG in the assay
B6: L3.PY/H2.HA (antibody, V domains shown)
VH: B1 VH with D52S, Y53H, S54A
VL: B1 VL
notes: IgG in the assay
B7: L3.PY/L3.KY/H2.LT (antibody, V domains shown)
VH: B1 VH with D52S, Y53L, S54T
VL: B1 VL with Q90K, H91Y
notes: IgG in the assay
B8: L3.PY/L3.KY/H2.QR (antibody, V domains shown)
VH: B1 VH with D52S, Y53G, S63Q, V64R
VL: B1 VL with Q90K, H91Y
notes: IgG in the assay
B9: L3.PY/L3.KF/H3.YA (antibody, V domains shown)
VH: B1 VH with D52S, Y53G, A103Y, S104A
VL: B1 VL with Q90K, H91F
notes: IgG in the assay
B10: L3.PY/H2.LT (antibody, V domains shown)
VH: B1 VH with D52S, Y53L, S54T
VL: B1 VL
notes: IgG in the assay
B11: L3.PY/L3.KY/H2.HA (antibody, V domains shown)
VH: B1 VH with D52S, Y53H, S54A
VL: B1 VL with Q90K, H91Y
notes: IgG in the assay
B12: L3.PY/L3.KY/H2.YQ (antibody, V domains shown)
VH: B1 VH with D52S, S54Q
VL: B1 VL with Q90K, H91Y
notes: IgG in the assay
B13: L3.PY/L3.KY/H2.QL (antibody, V domains shown)
VH: B1 VH with D52S, Y53G, S63Q, V64L
VL: B1 VL with Q90K, H91Y
notes: IgG in the assay
B14: L3.PY/L3.KY/H2.DY (antibody, V domains shown)
VH: B1 VH
VL: B1 VL with Q90K, H91Y
notes: IgG in the assay
B15: L3.PY/L3.KF/H3.AQ (antibody, V domains shown)
VH: B1 VH with D52S, Y53G, S104A, G105Q
VL: B1 VL with Q90K, H91F
notes: IgG in the assay
B16: L3.PY/H2.QL (antibody, V domains shown)
VH: B1 VH with D52S, Y53G, S63Q, V64L
VL: B1 VL
notes: IgG in the assay

Assays:
cyBCMA = molecular target: T1, cyBCMA (cynomolgus, UniProt A0A2K5UD97 1-53); assay: SPR, immobilised IgG, 37° C
T1 construct: Soluble analyte in SPR; construct not described; also called cyno BCMA

human BCMA = molecular target: T2, human BCMA (human, UniProt Q02223 1-54); assay: SPR, immobilised IgG, 37° C
T2 construct: also called huBCMA; hBCMA
T2 sequence: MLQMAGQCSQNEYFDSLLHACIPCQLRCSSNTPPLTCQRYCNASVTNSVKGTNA

T1 sequence (A0A2K5UD97 entry or part of it): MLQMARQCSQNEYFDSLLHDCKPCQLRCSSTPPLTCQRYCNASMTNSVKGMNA

Binder | T½ (cyBCMA) [min] | T½ (human BCMA) [min]
B1 | 1.87 | 8.37
B2 | – | 7.12
B3 | – | 17.8
B4 | – | 12.7
B5 | 1.76 | 9.75
B6 | 1.53 | 7.89
B7 | – | 12.8
B8 | – | 11.7
B9 | – | 7.85
B10 | 1.53 | 8.95
B11 | – | 7.1
B12 | – | 7.02
B13 | – | 5.56
B14 | – | 18
B15 | – | 5.09
B16 | 0.91 | 5.31
